Our source for the abundance fitness values is the Human Domainome abundance scans (Beltran et al. 2025).

The chains are these.
B1: Transitional endoplasmic reticulum ATPase, residues 26 to 106; numbered along this chain, P55072 (parent)
chain: LIVDEAINEDNSVVSLSQPKMDELQLFRGDTVLLKGKKRREAVCIVLSDDTCSDEKIRMNRVVRNNLRVRLGDVISIQPCP

± gives the uncertainty stated by the source.

In the data set the parent is B1. The data set is described as follows: abundance fitness (aPCA) (normalised: wild type 0, dead -1); higher = more abundant; growth selection in yeast, the domain comes from the species named. Conditions: Homo sapiens.
As for I57R, the abundance fitness is -0.931 ± 0.14. Next, I57Q: -0.816 ± 0.18.

Turning to I57N, the abundance fitness is -0.716 ± 0.3. As for I57S, the abundance fitness was -0.861 ± 0.15. As for I57L, the figure is -0.224 ± 0.066; as for I57E, -0.804 ± 0.15; as for I57V, -0.019 ± 0.058. Consider I57K, for which the abundance fitness is -0.931 ± 0.35.

Take I57C: the abundance fitness is -0.492 ± 0.16. As for I57W, the abundance fitness was -0.848 ± 0.18. As for I57T, the abundance fitness is -0.622 ± 0.11. Next, I57M: -0.198 ± 0.084; I57G: -0.951 ± 0.15; I57A: -0.356 ± 0.064. In the case of I57P, the abundance fitness was -0.933 ± 0.17.

With R61L, the abundance fitness was -0.006 ± 0.062. As for R61K, the figure is 0.079 ± 0.095; as for R61Y, -0.059 ± 0.21.

With R61C, the abundance fitness was 0.005 ± 0.16. Next, R61A: 0.059 ± 0.067; R61Q: -0.036 ± 0.18; R61M: -0.178 ± 0.19.

Consider R61G, for which the abundance fitness was -0.025 ± 0.061. Next, R61S: -0.024 ± 0.092; R61H: -0.157 ± 0.18.

In the case of R61I, the abundance fitness is -0.026 ± 0.15. With R61F, the abundance fitness was -0.158 ± 0.14. In the case of R61V, the abundance fitness was -0.005 ± 0.059. In the case of R61D, the abundance fitness was -0.024 ± 0.14. Take R61N: the abundance fitness is -0.091 ± 0.15. For the variant R61P, the abundance fitness is -0.003 ± 0.15. Consider R61T, for which the abundance fitness is -0.009 ± 0.092. Next, R61W: -0.119 ± 0.079. As for V62N, the figure is 0.109 ± 0.21.

V62G: the abundance fitness is 0.025 ± 0.052.

V62C: the abundance fitness is 0.029 ± 0.095. Consider V62M, for which the abundance fitness came out at 0.022 ± 0.087. On to V62Y, for which the abundance fitness was -0.195 ± 0.13. Consider V62W, for which the abundance fitness is -0.028 ± 0.063. For V62P, the abundance fitness is -0.378 ± 0.11. Regarding V62K, the abundance fitness turned out to be 0.003 ± 0.092. Take V62I: the abundance fitness worked out at 0.011 ± 0.13. For the variant V62F, the abundance fitness was -0.023 ± 0.12. Consider V62A, for which the abundance fitness was -0.04 ± 0.06.

For the variant V62S, the abundance fitness was 0.051 ± 0.062.

Turning to V62H, the abundance fitness turned out to be 0.038 ± 0.14.

V62L: the abundance fitness was found to be 0.005 ± 0.055. With V62D, the abundance fitness is 0.004 ± 0.12.

Consider V62R, for which the abundance fitness was -0.013 ± 0.056. Turning to K56W, the abundance fitness was -0.35 ± 0.055. K56V: the abundance fitness was -0.021 ± 0.063. Consider K56Y, for which the abundance fitness was -0.022 ± 0.1. Next, V63T: 0.072 ± 0.12.

Turning to V63N, the abundance fitness is -0.276 ± 0.17. Take V63A: the abundance fitness came to 0.054 ± 0.073. As for V63C, the abundance fitness is 0.031 ± 0.09. V63K: the abundance fitness was -0.433 ± 0.11. Regarding V63G, the abundance fitness is -0.253 ± 0.058. Regarding V63E, the abundance fitness was -0.223 ± 0.14. As for V63L, the abundance fitness came to 0 ± 0.061. Regarding V63W, the abundance fitness is -0.342 ± 0.1. Next, V63R: -0.445 ± 0.066; V63D: 0.029 ± 0.12; V63F: -0.061 ± 0.14.

Consider V63I, for which the abundance fitness is 0.029 ± 0.14. Consider V63M, for which the abundance fitness is -0.095 ± 0.11. As for V63P, the figure is -0.896 ± 0.29. For R58Q, the abundance fitness was -0.185 ± 0.14. As to R58M, the abundance fitness was -0.068 ± 0.095.

Consider R58W, for which the abundance fitness is -0.625 ± 0.15.

With R58E, the abundance fitness is -0.376 ± 0.098. Turning to R58S, the abundance fitness was -0.253 ± 0.062. For R58L, the abundance fitness is -0.037 ± 0.072. Consider R58Y, for which the abundance fitness was -0.093 ± 0.4.

For the variant R58I, the abundance fitness was -0.089 ± 0.2. As for R58P, the figure is -0.927 ± 0.32; as for R58V, -0.521 ± 0.1. In the case of R58G, the abundance fitness is -0.156 ± 0.056. As for R58F, the figure is -0.216 ± 0.19. On to R58C, for which the abundance fitness was -0.255 ± 0.13. Take R58H: the abundance fitness was -0.246 ± 0.25. R58K: the abundance fitness was -0.013 ± 0.12.

Take R58T: the abundance fitness is -0.515 ± 0.13.

For the variant M59W, the abundance fitness is -0.99 ± 0.14. On to M59A, for which the abundance fitness is -0.258 ± 0.086. Take M59C: the abundance fitness was -0.066 ± 0.088. Consider M59E, for which the abundance fitness was -0.768 ± 0.43. In the case of M59G, the abundance fitness was -1.01 ± 0.18. For M59T, the abundance fitness is -0.275 ± 0.1. With M59V, the abundance fitness is -0.166 ± 0.11. For M59R, the abundance fitness was -1.08 ± 0.13. For M59K, the abundance fitness is -1.03 ± 0.21. M59F: the abundance fitness is -0.333 ± 0.11.

As to M59S, the abundance fitness was -0.817 ± 0.13. On to M59I, for which the abundance fitness is -0.002 ± 0.14. Regarding M59P, the abundance fitness was -1.12 ± 0.32. As for N60M, the figure is -0.552 ± 0.16; as for N60W, -0.899 ± 0.24.

In the case of N60Y, the abundance fitness was -0.811 ± 0.39. Consider N60T, for which the abundance fitness was -0.019 ± 0.08. Next, N60Q: -0.307 ± 0.1; N60H: -0.045 ± 0.19; N60G: -0.065 ± 0.082.

Regarding N60V, the abundance fitness is -0.418 ± 0.071. Next, N60P: -0.046 ± 0.079; N60F: -0.889 ± 0.16; N60R: -0.325 ± 0.073. As to N60D, the abundance fitness was -0.077 ± 0.092.

With N60I, the abundance fitness was -0.681 ± 0.32. Consider N60E, for which the abundance fitness is -0.266 ± 0.11. As for N60S, the abundance fitness was determined as 0.085 ± 0.074. For N60A, the abundance fitness was -0.009 ± 0.075. N60C: the abundance fitness is -0.182 ± 0.16. Turning to N60L, the abundance fitness is -0.756 ± 0.13. With N65S, the abundance fitness is 0.025 ± 0.062. As for N65V, the figure is -0.131 ± 0.063; as for N65Q, -0.075 ± 0.095. As for N65R, the figure is -0.044 ± 0.054; as for N65L, -0.074 ± 0.051; as for N65A, -0.026 ± 0.067. For N65G, the abundance fitness is -0.066 ± 0.056. Take N65C: the abundance fitness was -0.106 ± 0.095. As to N65T, the abundance fitness was -0.07 ± 0.1. For N65M, the abundance fitness was -0.054 ± 0.1. As for N65P, the abundance fitness was -0.926 ± 0.21. N65W: the abundance fitness is -0.157 ± 0.068. N65H: the abundance fitness is -0.038 ± 0.11.

For the variant N65E, the abundance fitness was -0.02 ± 0.17. N65F: the abundance fitness is -0.116 ± 0.07. As for N65Y, the figure is -0.14 ± 0.14; as for N65D, 0.017 ± 0.11.

As to L67C, the abundance fitness was -0.175 ± 0.084. Next, L67A: -0.601 ± 0.074; L67D: -0.823 ± 0.25. Next, N66G: -0.021 ± 0.051. Next, N66T: 0.007 ± 0.11; N66V: -0.104 ± 0.06. Take N66Y: the abundance fitness was -0.176 ± 0.13. As for N66W, the abundance fitness is -0.255 ± 0.092. On to N66I, for which the abundance fitness is -0.151 ± 0.1.

Regarding N66S, the abundance fitness was -0.044 ± 0.061. For N66A, the abundance fitness is -0.071 ± 0.069. N66P: the abundance fitness is -0.952 ± 0.2.

Consider N66H, for which the abundance fitness was -0.314 ± 0.14. Next, N66E: 0.042 ± 0.084; N66K: 0.086 ± 0.091.

Take N66M: the abundance fitness is -0.04 ± 0.14.

In the case of N66L, the abundance fitness is -0.012 ± 0.066. As for N66F, the abundance fitness is -0.263 ± 0.083. Turning to N66C, the abundance fitness is -0.374 ± 0.27. R64M: the abundance fitness is -0.036 ± 0.16. Next, R64W: -0.684 ± 0.18; R64G: -0.638 ± 0.08. Consider R64E, for which the abundance fitness is -0.65 ± 0.16.

Regarding R64A, the abundance fitness is -0.023 ± 0.055.

R64T: the abundance fitness was -0.381 ± 0.096. With R64F, the abundance fitness is -0.212 ± 0.23.

For the variant R64C, the abundance fitness is -0.227 ± 0.12. With R64L, the abundance fitness was -0.044 ± 0.056. As for R64H, the figure is -0.415 ± 0.1; as for R64N, -0.458 ± 0.17; as for R64Q, -0.105 ± 0.1.

As to R64P, the abundance fitness is -1.06 ± 0.3. For the variant R64I, the abundance fitness is -0.061 ± 0.17. Consider R64S, for which the abundance fitness was -0.303 ± 0.072. Consider R64K, for which the abundance fitness was -0.365 ± 0.11. Regarding R64V, the abundance fitness is -0.321 ± 0.065.
